In IntAct's records for PubMed 15234987:

B1: Zinc finger protein ZFPM1 (Mus musculus), O35615 (parent)
chain: MSRRKQSNPRQIKRSLRDMEAGEEAKAMDSSPKEQEAPDPEAPAIEEPPSPPREDVSPPAVPAPPESPEDPEDMEGQELEMRPQDEEKEEKEEEAAMASPWSGPEELELALQDGQRCVRARLSLTEGLSWGPFYGSIQTRALSPEREEPGPAVTLMVDESCWLRMLPQVLTEEAANSEIYRKDDALWCRVTKVVPSGGLLYVRLVTEPHGAPRHPVQEPVEPGGLAPVHTDIQLLPQQAGMASILATAVINKDVFPCKDCGIWYRSERNLQAHLLYYCASRQRAGSPVSATEEKPKETYPNERVCPFPQCRKSCPSASSLEIHMRSHSGERPFVCLICLSAFTTKANCERHLKVHTDTLSGVCHNCGFISTTRDILYSHLVTNHMVCQPGSKGEIYSPGAGHPAAKLPPDSLAGFQQHSLMHSPLVPADKAPTPSSGLDSKAEVTNGETRVPPQNGGSSESPAAPRTIKVEAAEEPEATRASGPGEPGPQAPSRTPSPHSPNPVRVKTELSSPTPGSSPGPGELTMAGTLFLPQYVFSPDAGTTTVPTAPQASEILAKMSELVHNRLQQGAGSSGAAGTPTGLFSGTKGATCFECEITFNNINNFYVHKRLYCSGRRAPEDPPTVRRPKAATGPARAPAGAAAEPDPSRSSPGPGPREEEASGTTTPEAEAAGRGSEGSQSPGSSVDDAEDDPSRTLCEACNIRFSRHETYTVHKRYYCASRHDPPPRRPPAPTTAPGPAAPALTAPPVRTRRRRKLYELPAAGAPPPAAGPAPVPVVPSPTAELPSSPRPGSASAGPAPALSPSPVPDGPIDLSKRPRRQSPDAPTALPALADYHECTACRVSFHSLEAYLAHKKYSCPAAPLRTTALCPYCPPNGRVRGDLVEHLRQAHGLQVAKPAASPGAEPRTPAERAPRDSPDGRAPRSPSPAPENTPSDPADQGARTPSKGPPAPAPAPGGGGGHRYCRLCNIRFSSLSTFIAHKKYYCSSHAAEHVK

Variants of: B1
Conditions: with tacc3_mouse Tacc3, Q9JJ11
Sequence of tacc3_mouse Tacc3, Q9JJ11 (Q9JJ11 whole entry): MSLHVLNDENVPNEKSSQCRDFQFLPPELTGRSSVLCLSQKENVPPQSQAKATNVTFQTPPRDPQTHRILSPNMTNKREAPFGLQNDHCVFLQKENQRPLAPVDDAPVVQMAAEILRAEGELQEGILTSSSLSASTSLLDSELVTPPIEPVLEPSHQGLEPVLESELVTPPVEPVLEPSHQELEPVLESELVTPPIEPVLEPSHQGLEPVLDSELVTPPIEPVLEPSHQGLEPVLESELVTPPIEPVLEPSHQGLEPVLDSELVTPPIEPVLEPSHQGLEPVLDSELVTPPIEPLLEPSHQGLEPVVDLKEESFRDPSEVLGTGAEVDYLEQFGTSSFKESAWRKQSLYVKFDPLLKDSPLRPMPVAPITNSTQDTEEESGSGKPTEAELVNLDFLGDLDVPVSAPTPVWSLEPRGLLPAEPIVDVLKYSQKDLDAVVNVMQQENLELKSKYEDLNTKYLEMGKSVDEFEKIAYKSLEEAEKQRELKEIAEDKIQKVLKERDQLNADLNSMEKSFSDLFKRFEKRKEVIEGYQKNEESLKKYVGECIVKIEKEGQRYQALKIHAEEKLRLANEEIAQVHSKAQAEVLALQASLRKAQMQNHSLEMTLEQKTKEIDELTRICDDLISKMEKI

effect of a mutation on the interaction | Variant
decreasing interaction | R350A
decreasing interaction | V354A

The remaining lines, values behind:

Variant | effect of a mutation on the interaction
N347A | decreasing interaction
T343A | decreasing interaction
T344A | decreasing interaction
